Literature values, collected in patent US6051590A, “Immunosuppressant tricyclic compounds” (Merck & Co., Inc., priority 1999, dated 2000).

Target: T1, Kv 1.3 channels (CHO cells transfected with Kv 1.3) (Homo sapiens, UniProt P22001)
T1 construct: expressed in transfected cells; host or cells: CHO cells
Conditions: stated in the method for the reference blocker

T1 sequence (P22001 whole entry): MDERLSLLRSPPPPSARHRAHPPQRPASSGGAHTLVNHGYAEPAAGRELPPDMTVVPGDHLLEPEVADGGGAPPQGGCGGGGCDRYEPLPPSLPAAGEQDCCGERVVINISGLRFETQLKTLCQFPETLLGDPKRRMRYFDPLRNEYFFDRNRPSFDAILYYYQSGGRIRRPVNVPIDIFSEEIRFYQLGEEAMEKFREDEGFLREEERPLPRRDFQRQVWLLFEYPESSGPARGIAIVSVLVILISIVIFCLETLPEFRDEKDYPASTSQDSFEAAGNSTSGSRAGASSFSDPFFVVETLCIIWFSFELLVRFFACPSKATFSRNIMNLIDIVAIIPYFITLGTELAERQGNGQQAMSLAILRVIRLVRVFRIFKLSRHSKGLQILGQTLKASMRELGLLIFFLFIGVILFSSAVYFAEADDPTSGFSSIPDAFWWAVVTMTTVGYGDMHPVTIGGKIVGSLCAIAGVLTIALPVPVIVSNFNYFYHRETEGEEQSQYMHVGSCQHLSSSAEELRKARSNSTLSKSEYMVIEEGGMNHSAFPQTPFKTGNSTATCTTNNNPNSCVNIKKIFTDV

## margatoxin (TIINVKCTSPKQCLPPCKAQFGQSAGAKCMNGKCKCYPH; UniProt P40755 1-39, looked up)
  IC50: 0.1 nM
